Reference: paper PMC2267071
“And” between values parts separate entries of the source, which are not always exact repeats. Identical values can stand only once.

Experiments:
[1] = molecular target: Lys6 (position 6, TESHHK-----); assay: potentiometry; conditions: 25 C, 0.1 M KNO3
[2] = molecular target: Glu2 (position 2, ----TESHHK-); assay: potentiometry; conditions: 25 C; 0.1 M KNO3; free peptide (no metal)
[3] = molecular target: His5 (position 5, -TESHHK----); assay: potentiometry; conditions: 25 C; 0.1 M KNO3; free peptide (no metal)
[4] = molecular target: His4 (position 4, --TESHHK---); assay: potentiometry; conditions: 25 C; 0.1 M KNO3; free peptide (no metal)
[5] = molecular target: His5 (position 5, -TESHHK----); assay: NMR; conditions: 25 C; free peptide (no metal), 5 mM
[6] = molecular target: His4 (position 4, --TESHHK---); assay: NMR; conditions: 25 C; free peptide (no metal), 5 mM
[7] = molecular target: His4 (position 4, --TASHHK---); assay: potentiometry; conditions: 25 C; 0.1 M KNO3; free peptide (no metal)
[8] = molecular target: His5 (position 5, -TASHHK----); assay: potentiometry; conditions: 25 C; 0.1 M KNO3; free peptide (no metal)
[9] = molecular target: Lys6 (position 6, TASHHK-----); assay: potentiometry; conditions: 25 C; 0.1 M KNO3; free peptide (no metal)
[10] = molecular target: His4 (position 4, --TASHHK---); assay: NMR; conditions: 25 C; free peptide (no metal), 5 mM
[11] = molecular target: His5 (position 5, -TASHHK----); assay: NMR; conditions: 25 C; free peptide (no metal), 5 mM
[12] = molecular target: His4 (position 4, --TEAHHK---); assay: potentiometry; conditions: 25 C; 0.1 M KNO3; free peptide (no metal)
[13] = molecular target: His5 (position 5, -TEAHHK----); assay: potentiometry; conditions: 25 C; 0.1 M KNO3; free peptide (no metal)
[14] = molecular target: Lys6 (position 6, TEAHHK-----); assay: potentiometry; conditions: 25 C, 0.1 M KNO3
[15] = molecular target: Glu2 (position 2, ----TEAHHK-); assay: potentiometry; conditions: 25 C; 0.1 M KNO3; free peptide (no metal)
[16] = molecular target: His4 (position 4, --TEAHHK---); assay: NMR; conditions: 25 C; free peptide (no metal), 5 mM
[17] = molecular target: His5 (position 5, -TEAHHK----); assay: NMR; conditions: 25 C; free peptide (no metal), 5 mM
[18] = Zn(II)-bound peptide (ZnH-1L to ZnH-2L step), peptide:Zn ratios 1:1 and 2:1

Protein: TESHHK
- pKa [1, 18]: 10.30
- pKa ([1]; free peptide (no metal)): 10.28
- pKa [2]: 3.85
- pKa [3]: 6.78
- pKa [4]: 5.90
- pKa [5]: 6.41 (2) and 6.88 (5)
- pKa [6]: 6.35 (I) and 6.12 (4)

Protein: TASHHK
- pKa [7]: 5.74
- pKa [8]: 6.62
- pKa [9]: 10.48
- pKa [10]: 6.29 (2) and 6.06 (3)
- pKa [11]: 6.30 (2) and 6.61 (4)

Protein: TEAHHK
- pKa [12]: 6.00
- pKa [13]: 6.68
- pKa [14, 18]: 10.34
- pKa ([14]; free peptide (no metal)): 10.25
- pKa [15]: 4.10
- pKa [16]: 6.42 (2) and 6.15 (3)
- pKa [17]: 6.48 (2) and 6.72 (2)
